Each block holds one binder with its values, some of them ahead of it.
Columns and labels:
TtSlyDcas-Her3 = target: T1, TtSlyDcas-Her3; test: ELISA, antigen coated, hybridoma supernatant
T1 chain: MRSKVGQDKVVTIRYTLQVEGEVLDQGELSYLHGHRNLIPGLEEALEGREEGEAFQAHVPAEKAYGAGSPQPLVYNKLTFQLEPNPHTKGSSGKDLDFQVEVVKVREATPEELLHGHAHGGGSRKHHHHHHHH
Protocol: (§1) For the ELISA screening an antigen down format was used. […] Hybridoma Supernatant was added to the plates and incubated for 1 h at room temperature. Bound antibody was detected with a HRP-labeled F(ab′)₂ goat anti-mouse Fcγ (Dianova) and ABTS (Roche) was used as a HRP-substrate.
(§2) As negative controls the scaffold proteins TtSlyDcas and TgSlyDΔIF were used.

[1] = target: T2, human recombinant HER3 Extracellular Domain (HER3 ECD) (human, UniProt P21860 20-643); test: ELISA, antigen coated, hybridoma supernatant
T2 construct: 68 kDa; also called human-Her3-ECD
Protocol: as §1, §2

[2] = target: human HER2 Extracellular Domain (HER2 ECD) (human, UniProt P04626 23-652); test: ELISA, antigen coated, hybridoma supernatant
Protocol: as §1, §2

[3] = target: T3, human recombinant HER4 Extracellular Domain (HER4 ECD) (human, UniProt Q15303 26-651); test: ELISA, antigen coated, hybridoma supernatant
T3 sequence: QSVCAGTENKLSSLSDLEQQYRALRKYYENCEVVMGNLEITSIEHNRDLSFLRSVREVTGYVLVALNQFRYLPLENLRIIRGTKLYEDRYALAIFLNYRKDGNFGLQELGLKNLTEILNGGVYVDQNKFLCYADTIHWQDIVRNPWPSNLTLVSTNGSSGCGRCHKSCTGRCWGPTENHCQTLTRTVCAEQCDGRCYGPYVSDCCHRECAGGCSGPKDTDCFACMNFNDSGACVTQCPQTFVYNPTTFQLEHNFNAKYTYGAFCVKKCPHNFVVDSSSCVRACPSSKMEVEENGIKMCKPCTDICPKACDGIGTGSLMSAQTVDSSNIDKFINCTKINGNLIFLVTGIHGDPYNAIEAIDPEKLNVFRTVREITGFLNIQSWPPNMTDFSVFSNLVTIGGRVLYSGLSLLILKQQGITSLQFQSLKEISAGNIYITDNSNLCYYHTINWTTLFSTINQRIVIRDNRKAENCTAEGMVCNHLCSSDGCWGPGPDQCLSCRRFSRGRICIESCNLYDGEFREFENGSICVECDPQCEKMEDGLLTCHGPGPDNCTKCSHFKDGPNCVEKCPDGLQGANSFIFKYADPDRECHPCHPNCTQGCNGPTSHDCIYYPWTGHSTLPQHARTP
Protocol: as §1, §2

TgSlyDΔIF = target: T4, TgSlyDΔIF; test: ELISA, antigen coated, hybridoma supernatant
T4 construct: negative control scaffold without insert (Thermococcus gammatolerans SlyD); also called TgSlyDAIF
T4 chain: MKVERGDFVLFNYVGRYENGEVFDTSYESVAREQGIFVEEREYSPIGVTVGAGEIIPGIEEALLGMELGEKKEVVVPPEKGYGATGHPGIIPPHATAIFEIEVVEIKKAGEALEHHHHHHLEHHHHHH
Protocol: as §1, §2

TtSlyDcas [4] = target: T5, TtSlyDcas; test: ELISA, antigen coated, hybridoma supernatant
T5 construct: negative control scaffold without the HER3 β-hairpin
T5 chain: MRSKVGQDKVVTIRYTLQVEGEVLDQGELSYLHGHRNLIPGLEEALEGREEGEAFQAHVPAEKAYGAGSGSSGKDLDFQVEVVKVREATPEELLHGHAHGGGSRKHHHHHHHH
Protocol: as §1, §2

[5] = target: T6, human HER1 Extracellular Domain (HER1 ECD) (human, UniProt P00533 25-645); test: ELISA, antigen coated, hybridoma supernatant
T6 construct: also called EGFR ECD
Protocol: as §1, §2

TgSlyDser-Her3 = target: T7, TgSlyDser-Her3; test: ELISA, antigen coated, hybridoma supernatant
T7 chain: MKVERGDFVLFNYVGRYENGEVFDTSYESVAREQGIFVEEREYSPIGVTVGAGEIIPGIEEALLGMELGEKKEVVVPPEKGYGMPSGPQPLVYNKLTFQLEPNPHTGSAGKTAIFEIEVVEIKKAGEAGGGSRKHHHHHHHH
Protocol: as §1, §2

TgSlyDcys-Her3 = target: T8, TgSlyDcys-Her3; test: ELISA, antigen coated, hybridoma supernatant
T8 chain: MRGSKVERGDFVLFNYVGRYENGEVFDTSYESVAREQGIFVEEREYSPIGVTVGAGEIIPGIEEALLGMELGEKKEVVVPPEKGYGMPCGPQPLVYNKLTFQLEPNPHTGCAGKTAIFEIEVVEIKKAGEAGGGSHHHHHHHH
Protocol: as §1, §2

[6] = target: T9, HER3 ECD-HRG complex (Heregulin-activated Her-3 ECD) (human, UniProt P21860 20-643); test: SPR Biacore T200, antibody captured, 25 C
T9 construct: receptor-ligand complex made by preincubating HER3 ECD with a five-fold molar excess of Heregulin; also called Heregulin/Her-3 ECD; Heregulin-complexed Her-3 ECD
Protocol: (§3) A Biacore T200 instrument (GE Healthcare) was mounted with a CM5 series sensor. The sensor was normalized in HBS-ET buffer (10 mM HEPES pH 7.4, 150 mM NaCl, 3 mM EDTA, 0.05% w/v Tween 20) according to the manufacturer's instructions. The sample buffer was the system buffer supplemented with 1 mg/ml CMD (Carboxymethyldextran, Sigma #86524). The system operated at 25° C. 6500 RU RAM-Fcγ (relative units of Fcγ-fragment RamlgG, GE Healthcare) were immobilized according to the manufacturer's instructions using amine coupling EDC/NHS chemistry on all four flow cells. The sensor was deactivated using 1M ethanolamine. […] Concentration dependent kinetics were measured. […] All analytes were injected for 5 min association time and 10 min dissociation time at 100 μl/min flow rate. The sensor capture system was regenerated by a 3 min injection at 10 μl/min of 10 mM glycine pH 1.7. Where possible kinetic data was evaluated using the Biacore T200 evaluation software.

[7] = target: T2, human recombinant HER3 Extracellular …; test: SPR Biacore T200, antibody captured, 25 C
Protocol: as §3

TtSlyDcas [8] = target: T5, TtSlyDcas; test: SPR Biacore T200, antibody captured, 25 C
Protocol: as §3

B1: anti-HER3 antibody M-17-02 (antibody, V domains shown)
VH: EVQLQQSGTVLARPGASVKMSCKASGYSFTSYWIHWVKQRPGQGLEWIGAIYPGNSDTTYNQKFKGKAKLTAVTSASTAYMELSSLTNEDSAVYYCARTGVWTSYYFDYWGQGTTLTVSS
VL: DIQMTQSPASLSASVGETVTITCRASENIYSNLAWYQQKQGKSPQLLVYAATNLADGVPSRFSGSGSGTQFSLRINSLQPEDFGSYYCQHFYGTPFTFGTGTKLEIK
notes: mouse hybridoma clone
OD 405 nm (TtSlyDcas-Her3): 1.53 OD | OD 405 nm [1]: 2.96 OD | OD 405 nm [2]: 0.03 OD | binding result [2]: no binding | OD 405 nm [3]: 0.025 OD | binding result [3]: no binding | OD 405 nm (TgSlyDΔIF): 0.026 OD | OD 405 nm (TtSlyDcas [4]): 0.023 OD | OD 405 nm [5]: 0.028 OD | binding result [5]: no binding | OD 405 nm (TgSlyDser-Her3): 1.57 OD | OD 405 nm (TgSlyDcys-Her3): 1.53 OD

B3: anti-HER3 antibody M-46-01 (antibody, V domains shown)
VH: QIQLQQSGPQLVRPGASVKISCKASGYSFTSYWMHWVKQRPGRGLEWIGMIDPSDGVTRLNQKFKDKATLTVDNSSSTAYMQLSSPTSEDSAVHYCARVDVLYWYFDVWGAGTTVTVSS
VL: DIVLTQSPASLAVSLGQRATISCRASKSISISGYSYMHWYQQKAGQPPKLLIYLTSNLESGVPARFSGSGSGTDFTLNIHPVEEEDAATYYCHHSRELPFTFGSGTKLEIK
notes: mouse hybridoma clone
OD 405 nm (TtSlyDcas-Her3): 2.56 OD | OD 405 nm [1]: 1.35 OD | OD 405 nm [2]: 0.04 OD | binding result [2]: no binding | OD 405 nm [3]: 0.032 OD | binding result [3]: no binding | OD 405 nm (TtSlyDcas [4]): 0.038 OD | OD 405 nm [5]: 0.043 OD | binding result [5]: no binding | MR (Molar Ratio) [6]: 0.9 | Kd [7]: 3.8 nM | MR (Molar Ratio) [7]: 0.2 | koff [7]: 0.0004 s⁻¹ | kon [7]: 100000 M⁻¹ s⁻¹ | MR (Molar Ratio) (TtSlyDcas [8]): 0 | binding result (TtSlyDcas [8]): no binding (tested: 90 nM)

Further binders by falling Kd [7], results first:

OD 405 nm (TtSlyDcas-Her3): 3.27 OD | OD 405 nm [1]: 1.44 OD | OD 405 nm [2]: 0.045 OD | binding result [2]: no binding | OD 405 nm [3]: 0.04 OD | binding result [3]: no binding | OD 405 nm (TgSlyDΔIF): 0.038 OD | OD 405 nm (TtSlyDcas [4]): 0.018 OD | OD 405 nm [5]: 0.043 OD | binding result [5]: no binding | OD 405 nm (TgSlyDser-Her3): 3.44 OD | OD 405 nm (TgSlyDcys-Her3): 3.15 OD | MR (Molar Ratio) [6]: 0.3 | Kd [7]: 5.2 nM | MR (Molar Ratio) [7]: 0.1 | koff [7]: 0.00055 s⁻¹ | kon [7]: 110000 M⁻¹ s⁻¹ | MR (Molar Ratio) (TtSlyDcas [8]): 0 | binding result (TtSlyDcas [8]): no binding (tested: 90 nM)
B2: anti-HER3 antibody M-43-01 (antibody, V domains shown)
VH: EVQLQQSGTVLARPGASVKMSCKASDYTFSNYWVHWVKQRPGQGLEWIGAIYPGNGDSTYYQKFKGKATLTAVTSTSTAYMDLSSLTNGDSAVYFCTRSGVGYNYYFDYWGQGTTLTVSS
VL: DIQMTQSPASLSASVGETVTITCRASENIYSNLAWYQQKQGKSPQLLVYIATNLADGVPSRFSGSGSGTQFSLKINSLQPEDLGSYYCQHFYGTPFTFGTGTKLEIE
notes: mouse hybridoma clone

OD 405 nm (TtSlyDcas-Her3): 3.2 OD | OD 405 nm [1]: 3.15 OD | OD 405 nm [2]: 0.025 OD | binding result [2]: no binding | OD 405 nm [3]: 0.024 OD | binding result [3]: no binding | OD 405 nm (TgSlyDΔIF): 0.035 OD | OD 405 nm (TtSlyDcas [4]): 0.038 OD | OD 405 nm [5]: 0.06 OD | binding result [5]: no binding | OD 405 nm (TgSlyDser-Her3): 3.11 OD | OD 405 nm (TgSlyDcys-Her3): 3.26 OD | MR (Molar Ratio) [6]: 0.7 | Kd [7]: 3.5 nM | MR (Molar Ratio) [7]: 0.1 | koff [7]: 0.00037 s⁻¹ | kon [7]: 110000 M⁻¹ s⁻¹ | MR (Molar Ratio) (TtSlyDcas [8]): 0 | binding result (TtSlyDcas [8]): no binding (tested: 90 nM)
B4: anti-HER3 antibody M-08-11 (antibody, V domains shown)
VH: QAYLQQSGAELMRPGASVRMSCQASGYTFTSYTIHWLKQTPRQGLEWIGAIYPRNGDFSYNQKFKDKASLTVDTSSSTAYMHLSSLTSEDSAVYFCARTINYGDWFAYWGQGTLVTVSA
VL: DIQMIQSPASLFVSEGETVIITCRASENIYSNLAWYHQKKGKSPQVLVYAAIKLADGVPLRFSGSGSGTQFSLKINSLQSEDFGSYYCQHFWGPPYTFGSGTNLEIK
notes: mouse monoclonal antibody from hybridoma, tested as hybridoma supernatant or as antibody; also called M-011
